Experimental data as given in patent US20210032312A1 (Janssen / Centocor, published 2021).

Assays:
[1] = target: T1, In house human CD8A-Fc (human, UniProt P01732 22-182, limits assumed); assay: SPR (ProteOn), captured hCD8A-Fc
T1 construct: Captured on goat anti-human Fc on a ProteOn GLC chip; also called hCD8A-Fc; recombinant human CD8 alpha; not shown: linker with flag (and polyhistidine) tag and Fc of human IgG1

[2] = target: T2, cynomolgus monkey CD8A on primary cynomolgus monkey CD8+ T cells (cynomolgus monkey, UniProt P01732 23-235 (human entry)); assay: flow cytometry, cyno CD8+ T cells, 2 uM FN3
T2 construct: also called Cyno CD8alpha
T2 sequence (P01732 other isoform, or with tags, fused parts or gaps limits assumed): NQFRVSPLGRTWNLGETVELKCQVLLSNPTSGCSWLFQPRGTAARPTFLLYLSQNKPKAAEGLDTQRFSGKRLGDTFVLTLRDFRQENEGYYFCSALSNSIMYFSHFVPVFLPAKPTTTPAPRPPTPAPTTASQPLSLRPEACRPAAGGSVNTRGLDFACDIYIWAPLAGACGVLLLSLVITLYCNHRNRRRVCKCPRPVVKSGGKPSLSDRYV

[3] = target: T3, human CD8 alpha (CD8A) on primary human CD8+ T cells (human, UniProt P01732 22-235); assay: flow cytometry, human CD8+ T cells, 2 uM FN3
T3 construct: whole, on cells; also called hCD8A
T3 sequence (P01732 22-235): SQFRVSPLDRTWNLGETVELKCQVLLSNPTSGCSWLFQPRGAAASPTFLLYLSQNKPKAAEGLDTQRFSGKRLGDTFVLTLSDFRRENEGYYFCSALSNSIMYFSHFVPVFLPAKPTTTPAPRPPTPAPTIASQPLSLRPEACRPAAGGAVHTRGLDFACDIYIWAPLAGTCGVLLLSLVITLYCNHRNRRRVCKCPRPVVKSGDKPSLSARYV

[4] = target: T2, cynomolgus monkey CD8A on primary …; assay: flow cytometry, cyno CD8+ T cells, 0.2 uM FN3
[5] = target: T3, human CD8 alpha (CD8A) on primary human …; assay: flow cytometry, human CD8+ T cells, 0.2 uM FN3
[6] = target: T4, cynomolgus monkey CD8 alpha on primary cynomolgus CD8+ T cells (cynomolgus monkey, UniProt P01732 23-235 (human entry)); assay: flow cytometry, cyno CD8+ T cells
T4 construct: also called Cyno CD8alpha; cyno CD8A
T4 sequence (P01732 other isoform, or with tags, fused parts or gaps limits assumed): as the sequence (P01732 other isoform, or with tags, fused parts or gaps limits assumed) above
Protocol: (§1) Binding of the 190 ELISA hits to human and cynomologous monkey primary CD8 T cells was assessed by flow cytometry. The FN3 domain molecules were diluted to 2 μM and 0.2 μM in PBS and incubated with human or cynomologous monkey CD8+ T cells in 96-well format. After 1 hour at 4 C, the cells were washed once with PBS and then resuspended with an anti-FN3 domain antibody (PAB25) solution. Following this incubation, the cells were washed twice with PBS and a PE conjugated secondary antibody and a viability dye were added. Finally, cells were washed and resuspended in PBS for flow cytometric analysis using a BD Canto Instrument. Cells were gating on live cells and median fluorescence intensity of the bound Centyrins (PE channel) was calculated using Cytobank software.

[7] = target: T5, human CD8 alpha (CD8A) on primary human CD8+ T cells (human, UniProt P01732 22-235); assay: flow cytometry, human CD8+ T cells
T5 construct: whole, on cells; also called hCD8A
Protocol: as §1
T5 sequence (P01732 22-235): as the sequence (P01732 22-235) above

[8] = target: T6, human CD8A-Fc (in house) (human, UniProt P01732 22-182, limits assumed); assay: SPR (ProteOn), captured hCD8A-Fc
T6 construct: captured by goat anti-human Fc on the ProteOn chip; also called hCD8A-Fc; recombinant human CD8 alpha; not shown: linker/tag and Fc of human IgG1
T6 sequence (P01732 22-182 limits assumed): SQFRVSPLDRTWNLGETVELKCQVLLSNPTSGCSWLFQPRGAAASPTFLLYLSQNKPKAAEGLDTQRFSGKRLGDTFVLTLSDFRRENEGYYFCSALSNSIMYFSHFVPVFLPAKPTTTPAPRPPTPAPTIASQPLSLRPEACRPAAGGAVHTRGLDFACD

T1 sequence (P01732 22-182 limits assumed): as above

koff [1] [s⁻¹] | Cyno T-cell Binding 2 uM (MFI) [2] [MFI] | Human T-cell Binding 2 uM (MFI) [3] [MFI] | Cyno T-cell Binding 0.2 uM (MFI) [4] [MFI] | Human T-cell Binding 0.2 uM (MFI) [5] [MFI] | Cyno T-cell Binding 0.2 uM (MFI) [6] [MFI] | Cyno T-cell Binding 2 uM (MFI) [6] [MFI] | Human T-cell Binding 0.2 uM (MFI) [7] [MFI] | Human T-cell Binding 2 uM (MFI) [7] [MFI] | koff [8] [s⁻¹] | Binder
0.00109 | 17500 | 16000 | 5690 | 4150 |  |  |  |  |  | P283AR9P1362_C6 (designed binder, FN3 domain) LPAPKNLVVSRVTEDSARLSWYPSDPPFDSFLIQYQESEKVGEAIVLTVPGSERSYDLTGLKPGTEYTVSIYGVPNYHSRRSYYYSNPLSAIFTT
0.000353 | 24200 | 11300 | 3450 | 2540 |  |  |  |  |  | P283BR9P1363_A8 (designed binder, FN3 domain) LPAPKNLVVSRVTEDSARLSWVRSDTARFFDSFLIQYQESEKVGEAIVLTVPGSERSYDLTGLKPGTEYTVSIYGVDVKYDIDSRPISSNPLSAIFTT
0.000139 | 35700 | 15400 | 8380 | 3700 |  |  |  |  |  | P283AR9P1362_B10 (designed binder, FN3 domain) LPAPKNLVVSRVTEDSARLSWKRRWDSFDSFLIQYQESEKVGEAIVLTVPGSERSYDLTGLKPGTEYTVSIYGVDVEWFNGLPHHSNPLSAIFTT
0.00114 | 1700 | 7000 | 353 | 1110 |  |  |  |  |  | P282FR9P1361_F7 (designed binder, FN3 domain) LPAPKNLVVSRVTEDSARLSWTAPDAAFDSFPIWYREYATGEAIVLTVPGSERSYDLTGLKPGTEYDVVITGVKGGYPSYPLSAIFTT
0.000409 | 23400 | 9070 | 3270 | 2250 |  |  |  |  |  | P283BR9P1363_C4 (designed binder, FN3 domain) LPAPKNLVVSRVTEDSARLSWPIVNTPLHFDSFLIQYQESEKVGEAIVLTVPGSERSYDLTGLKPGTEYTVSIYGVDVQYTATGQPERSNPLSAIFTT
 |  |  |  |  | 3660 | 37400 | 2330 | 18900 | 0.00139 | P283FR9P1366_H11 (designed binder, FN3 domain) LPAPKNLVVSRVTEDSARLSWTAPDAAFDSFQIQYLETAPDGEAIVLTVPGSERSYDLTGLKPGTEYYVWIPGVKGGAFSPLSAIFTT
0.000495 | 20600 | 8690 | 11600 | 2890 |  |  |  |  |  | P283BR9P1363_D11 (designed binder, FN3 domain) LPAPKNLVVSRVTEDSARLSWNKKHDGQPTFDSFLIQYQESEKVGEAIVLTVPGSERSYDLTGLKPGTEYTVSIYGVDVVYEGSYPASSNPLSAIFTT
 |  |  |  |  | 5510 | 59300 | 1180 | 14300 | 0.000756 | P283DR9P1364_E8 (designed binder, FN3 domain) LPAPKNLVVSRVTEDSARLSWTAPDAAFDSFSIAYPEWPVHGEAIVLTVPGSERSYDLTGLKPGTEYFVIIYGVKGGVLSEPLSAIFTT
 |  |  |  |  | 746 | 8620 | 666 | 1480 | 0.00156 | P283DR9P1364_B1 (designed binder, FN3 domain) LPAPKNLVVSRVTEDSARLSWTAPDAAFDSFYITYPEIPLGGEAIVLTVPGSERSYDLTGLKPGTEYFVVIYGVKGGLLSSPLSAIFTT
 |  |  |  |  | 2640 | 39900 | 435 | 8980 | 0.00197 | P283DR9P1364_A7 (designed binder, FN3 domain) LPAPKNLVVSRVTEDSARLSWTAPDAAFDSFRIAYPEWPVRGDAIVLTVPGSERSYDLTGLKPGTEYWVIIQGVKGGTDSFPLSAIFTT
 |  |  |  |  | 1590 | 22900 | 451 | 4260 | 0.0013 | P283DR9P1364_B11 (designed binder, FN3 domain) LPAPKNLVVSRVTEDSARLSWTAPDAAFDSFYISYPEWEQLGEAIVLTVPGSERSYDLTGLKPGTEYFVVIYGVKGGALSAPLSAIFTT
 |  |  |  |  | 20200 | 96500 | 6060 | 45500 | 0.000109 | P283DR9P1364_B4 (designed binder, FN3 domain) LPAPKNLVVSRVTEDSARLSWTAPDAAFDSFAISYPEWPPPGEAIVLTVPGSERSYDLTGLKPGTEYWVIILGVKGGDQSWPLSAIFTT
 |  |  |  |  | 2710 | 34200 | 649 | 4940 | 0.00129 | P283DR9P1364_C10 (designed binder, FN3 domain) LPAPKNLVVSRVTEDSARLSWTAPDAAFDSFQIAYPEWPKDGEAIVLTVPGSERSYDLTGLKPGTEYAVFIWGVKGGVYSNPLSAIFTT
 |  |  |  |  | 20000 | 88300 | 5240 | 42300 | 0.00043 | P283DR9P1364_D9 (designed binder, FN3 domain) LPAPKNLVVSRVTEDSARLSWTAPDAAFDSFGISYPEWPPLGEAIVLTVPGSERSYDLTGLKPGTEYWVIIFGVKGGERSWPLSAIFTT
 |  |  |  |  | 6650 | 48300 | 1024 | 9490 | 0.00109 | P283DR9P1364_A4 (designed binder, FN3 domain) LPAPKNLVVSRVTEDSARLSWTAPDAAFDSFYIAYPEWPVQGEAIVLTVPGSERSYDLTGLKPGTEYFVIIYGVKGGDWSEPLSAIFTT
 |  |  |  |  | 365 | 2480 | 244 | 656 | 0.00661 | P283DR9P1364_D8 (designed binder, FN3 domain) LPAPKNLVVSRVTEDSARLSWTAPDAAFDSFQIAYPETPIQGEAIVLTVPGSERSYDLTGLKPGTEYFVIIHGVKGGITSFPLSAIFTT
0.000253 | 17200 | 8650 | 5330 | 2760 |  |  |  |  |  | P283AR9P1362_D2 (designed binder, FN3 domain) LPAPKNLVVSRVTEDSARLSWQRPKSGFFDSFLIQYQESEKVGEAIVLTVPGSERSYDLTGLKPGTEYTVSIYGVDVKYDIDSRPISSNPLSAIFTT
0.00018 | 11600 | 5730 | 3660 | 2270 |  |  |  |  |  | P283AR9P1362_H11 (designed binder, FN3 domain) LPAPKNLVVSRVTEDSARLSWPKIQGQHFDSFLIQYQESEKVGEAIVLTVPGSERSYDLTGLKPGTEYTVSIYGVDVKYDIDSRPISSNPLSAIFTT
0.00016 | 38800 | 13600 | 6480 | 3500 |  |  |  |  |  | P283AR9P1362_B2 (designed binder, FN3 domain) LPAPKNLVVSRVTEDSARLSWAKHPNSFDSFLIQYQESEKVGEAIVLTVPGSERSYDLTGLKPGTEYTVSIYGVDVVVNELNNPLFSNPLSAIFTT
0.00109 | 63500 | 15800 | 15100 | 1130 |  |  |  |  |  | P282FR9P1361_E12 (designed binder, FN3 domain) LPAPKNLVVSRVTEDSARLSWTAPDAAFDSLGITYWESPYAGEAIVLTVPGSERSYDLTGLKPGTEYGVFILGVKGGYPSAPLSAIFTT
0.00653 | 3750 | 859 | 666 | 297 |  |  |  |  |  | P282FR9P1361_G9 (designed binder, FN3 domain) LPAPKNLVVSRVTEDSARLSWTAPDAAFDSFGITYWESPYAGEAIVLTVPGSERSYDLTGLKPGTEYGVFILGVKGGYPSAPLSAIFTT
